Assay results taken from article PMC2581641 (Molecular microbiology, 2008).

T1: λCI-AlgQ fusion protein (P. aeruginosa, UniProt P15275 1-160)
T1 sequence (looked up): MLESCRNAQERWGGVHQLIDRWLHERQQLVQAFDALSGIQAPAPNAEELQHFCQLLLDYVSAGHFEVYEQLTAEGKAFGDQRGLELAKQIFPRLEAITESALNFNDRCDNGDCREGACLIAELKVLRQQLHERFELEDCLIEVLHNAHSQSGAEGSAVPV

T2: λCI-Rsd fusion protein with substitution Y34F (E. coli, UniProt P0AFX4 1-158, Y34F)
T2 sequence (looked up): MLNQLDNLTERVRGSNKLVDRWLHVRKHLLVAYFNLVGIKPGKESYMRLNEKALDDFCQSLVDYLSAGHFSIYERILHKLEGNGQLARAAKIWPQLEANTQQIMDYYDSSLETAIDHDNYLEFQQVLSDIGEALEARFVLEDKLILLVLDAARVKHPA

T3: λCI-Rsd fusion protein with substitution G14E (E. coli, UniProt P0AFX4 1-158, G14E)
T3 sequence (looked up): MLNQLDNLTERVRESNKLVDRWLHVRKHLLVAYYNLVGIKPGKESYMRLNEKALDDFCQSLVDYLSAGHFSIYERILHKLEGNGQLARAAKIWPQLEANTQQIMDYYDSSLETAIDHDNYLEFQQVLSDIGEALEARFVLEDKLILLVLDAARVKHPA

T4: λCI-Rsd fusion protein with substitutions G14E and Y34F (E. coli, UniProt P0AFX4 1-158, G14E | Y34F)
T4 sequence (looked up): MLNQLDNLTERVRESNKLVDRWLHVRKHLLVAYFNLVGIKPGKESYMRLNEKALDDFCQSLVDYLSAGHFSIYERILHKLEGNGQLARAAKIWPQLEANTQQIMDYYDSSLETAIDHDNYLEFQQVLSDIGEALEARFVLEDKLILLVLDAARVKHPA


Experiments:
Assay in all cases: two-hybrid
λCI-AlgQ fusion protein = target: T1, λCI-AlgQ fusion protein
[1] = target: T2, λCI-Rsd fusion protein with …
[2] = target: T3, λCI-Rsd fusion protein with …
[3] = target: T4, λCI-Rsd fusion protein with …

Binder	fold activation of lacZ transcription (λCI-AlgQ fusion protein) [fold]	fold activation of lacZ transcription [1] [fold]	fold activation of lacZ transcription [2] [fold]	fold activation of lacZ transcription [3] [fold]
α-Pa σ^70 region 2 fusion protein (domain or fragment, P. aeruginosa, UniProt P26480 96-450, looked up) TTDPVRMYMREMGTVELLTREGEIEIAKRIEEGIREVMSAIAQFPGTVDSILADYNRIVAEGGRLSDVLSGYIDPDDGSLPAEEVEPVNLKDDSADSKEKDDEEEESDDSSDSDDEGDGGPDPEEARLRFTAVSEQLDKAKKALKKHGRGSKQATAELTGLAELFMPIKLVPKQFDALVARVRSALEGVRAQERAIMQLCVRDARMPRADFLRLFPNHETDEKWVDSVLKSKPKYAEAIERLRDDILRNQQKLAALESEVELTVAEIKEINRAMSIGEAKARRAKKEMVEANLRLVISIAKKYTNRGLQFLDLIQEGNIGLMKAVDKFEYRRGYKFSTYATWWIRQAITRSIADQ	~14			
α-σ^70 region 2 fusion protein (domain or fragment, E. coli, UniProt P00579 94-448, looked up) TTDPVRMYMREMGTVELLTREGEIDIAKRIEDGINQVQCSVAEYPEAITYLLEQYDRVEAEEARLSDLITGFVDPNAEEDLAPTATHVGSELSQEDLDDDEDEDEEDGDDDSADDDNSIDPELAREKFAELRAQYVVTRDTIKAKGRSHATAQEEILKLSEVFKQFRLVPKQFDYLVNSMRVMMDRVRTQERLIMKLCVEQCKMPKKNFITLFTGNETSDTWFNAAIAMNKPWSEKLHDVSEEVHRALQKLQQIEEETGLTIEQVKDINRRMSIGEAKARRAKKEMVEANLRLVISIAKKYTNRGLQFLDLIQEGNIGLMKAVDKFEYRRGYKFSTYATWWIRQAITRSIADQAR		~9	~10	~12
